Measured values as given in PMC2891831, “Insight into the Mechanisms of Adenovirus Capsid Disassembly from Studies of Defensin Neutralization” (PLoS Pathogens, 2010).

Assays:
HAdV species B1 = assay: Infection assay (hexon staining), HAdV species B1; type: cell-based, human adenovirus; conditions: 15 µM HD5, A549 cells, hexon staining at ~48 h, vs. no defensin
Procedure: (§1) To determine whether sensitivity to α-defensins is a general property of HAdVs, serotypes representative of HAdV species A–F were tested for infectivity in the presence of 15 µM HD5 or HNP1 (Figure 1). Wild type HAdVs rather than vectors were used for these studies, and infectivity was assessed by staining for hexon production. […] These studies indicate that sensitivity to α-defensins is species specific. In addition, particular HAdV serotypes are not equally sensitive to all defensins, indicating defensin sequence specificity as well.
(§2) Figure 1 Sensitivity to neutralization by alpha-defensins is AdV species specific. HAdVs were incubated with 15 µM HD5 (A) or HNP1 (B) and assessed for infectivity on A549 cells. Data are the mean of the percent infectivity compared to control cells infected with each virus in the absence of defensin for at least three independent experiments ± SD. The upper limit for quantification of this assay is 200%. […]
(§3) Prior to use in this assay, each virus stock was titrated on A549 cells. […] In parallel, wells were infected with two-fold serial dilutions of each virus to establish a standard curve for quantification with an upper limit of 200%. […] Total well fluorescence above background was quantified with ImageJ software. For each virus, samples were quantified by nonlinear regression against the standard curve using Prism software (GraphPad Software, Inc., La Jolla, CA).

Ad5.F35 = assay: Sensitivity of Ad5.F35 to HD5; type: cell-based, human adenovirus; conditions: data not shown; compared with HAdV-5 and HAdV-35
19cF = assay: Infection assay, 19cF virus chimera; type: cell-based, human adenovirus
From the text: (§4) The availability of sensitive (e.g., HAdV-5) and resistant (e.g., HAdV-19c) serotypes provided a means to test this HD5 neutralization model by generating virus chimeras. Initially, virus chimeras were constructed by replacing the sequences for fiber, penton base, and hexon in the HAdV-5 genome with the corresponding sequences from HAdV-19c. Consistent with previous studies, [38], the virus chimera containing the HAdV-19c hexon is not viable; however, constructs containing the HAdV-19c fiber (19cF) or penton base (19cPB) are capable of replicating. […] In contrast, the 19cPB virus has an intermediate phenotype.
(§5) Figure 6 Neutralization determinants are located in fiber and penton base. A) Schematic of chimeric viruses. […] B) Each of the chimeric viruses was incubated with 5 µM (grey) or 10 µM (black) HD5 and assessed for infectivity on A549 cells. […] The upper limit for quantification of this assay is 200%.
as §3

19cPB = assay: Infection assay, 19cPB virus chimera; type: cell-based, human adenovirus; conditions: 5 µM and 10 µM HD5, A549 cells; at least three independent experiments; neutralized only at 10 µM
From the text: as §4, §5, §3

PB/GYAR = assay: Infection assay, PB/GYAR virus chimera; type: cell-based, human adenovirus
Procedure: Figure 6 Neutralization determinants are located in fiber and penton base. A) Schematic of chimeric viruses. Capsid proteins are depicted in the order in which they are encoded in the virus genome for HAdV-5 (white) and HAdV-19c (grey). The variable residues in fiber (GYAR and DTET) are indicated for each construct. B) Each of the chimeric viruses was incubated with 5 µM (grey) or 10 µM (black) HD5 and assessed for infectivity on A549 cells. Data are the mean of the percent infectivity compared to control cells infected with each virus in the absence of defensin for at least three independent experiments ± SD. The upper limit for quantification of this assay is 200%.
We then combined the GYAR substitution with the PB substitution in a single construct (PB/GYAR).
Prior to use in this assay, each virus stock was titrated on A549 cells. A virus concentration was chosen to produce 50–70% maximal signal in the absence of defensin as described below. […] In parallel, wells were infected with two-fold serial dilutions of each virus to establish a standard curve for quantification with an upper limit of 200%. […] Total well fluorescence above background was quantified with ImageJ software. For each virus, samples were quantified by nonlinear regression against the standard curve using Prism software (GraphPad Software, Inc., La Jolla, CA).

HAdV-41 = assay: Infection assay (hexon staining), HAdV-41; type: cell-based, human adenovirus; conditions: 15 µM HD5, A549 cells
Procedure: as §1, §2, §3

HAdV-5 = conditions: ref [13], cited from earlier work
HAdV-5 capsid = conditions: previous observation; cited from earlier work
From the text: Therefore, we considered which of the multiple binding sites visualized by cryoEM might lead to enhanced virion stability. We reasoned that we might find a negatively charged region o ... || Based on our combined functional and structural studies, we propose a model for neutralization in which α-defensins bind to critical capsid determinants at the point of contact between fiber and penton base, thereby preventing fiber release. One implication of this model is that fiber dissociation is absolutely required for subsequent uncoating events. This model cannot distinguish between the dissociation of fiber and penton base from the capsid independently or together as a complex. In the first case, defensin may actively lock the fiber onto the penton base. Alternatively, HD5 may obstruct ...

B1: HD5: human alpha-defensin; synthetic, obtained from Peptides International; three disulfide bonds (PDB 1ZMP) (peptide, UniProt Q01523 20-94, looked up)
Defensin alpha 5: ESLQERADEATTQKQSGEDNQDLAISFAGNGLSALRTSGSQARATCYCRTGRCATRESLSGVCEISGRLYRLCCR
modifications: Defensin-5
sensitivity to neutralization (infectivity) (HAdV species B1): sensitive | sensitivity of Ad5.F35 to HD5 (Ad5.F35): comparable to that of HAdV-5 and HAdV-35 | sensitivity to HD5 neutralization (19cF; 5 µM and 10 µM HD5, A549 cells, at least three independent experiments, upper limit 200%): completely resistant to neutralization | defensin-resistance at higher HD5 concentration (19cF; 20 µM HD5, data not shown): confirmed the defensin-resistance | sensitivity to HD5 neutralization (19cPB): partially neutralized by HD5 but only at the higher concentration tested (10 µM) | sensitivity to HD5 neutralization (PB/GYAR; 5 µM and 10 µM HD5, A549 cells, at least three independent experiments): completely resistant to neutralization | defensin-resistance at higher HD5 concentration (PB/GYAR; 20 µM HD5, data not shown): confirmed the defensin-resistance | sensitivity to HD5 (HAdV-41): resistant | inhibition of HAdV-5 infection (HAdV-5; low micromolar concentrations): significantly inhibit HAdV-5 infection at low micromolar concentrations | productive infection by HAdV-5 (HAdV-5): almost complete block to productive infection | IC50 (HAdV-5; read-out: IC50 for HAdV-5 infection): 3 to 4 µM | effect on capsid proteins upon exposure to heat (HAdV-5 capsid): stabilizes the capsid and prevents dissociation of capsid proteins, including fiber, upon exposure to heat
